Results: publication PMC8855710
Each block holds one substance with its values, some of them ahead of it.

Key:
[1] = target: htt^ex1Q7 (huntingtin exon-1 polypeptide with seven glutamines); experiment: NMR titration
[2] = target: PL: binary complex of monomeric htt^ex1Q7 with Fyn SH3 (not stated | Gallus gallus) (UniProt Q05876); experiment: NMR titration
[3] = target: huntingtin exon 1 (httex1Q7) dimer exon 1 (Homo sapiens) (UniProt P42858); details: cited from earlier work

Kd [1]: 210 µM
Substance: Gallus gallus tyrosine kinase Fyn SH3 domain (wild type) (from UniProt Q05876 85-135) (domain or fragment)

stoichiometry N [2]: 2
Substance: PL: binary complex of monomeric htt^ex1Q7 with Fyn SH3 (from UniProt Q05876 85-135)

Substance: huntingtin exon 1 (httex1Q7) dimer exon 1 (from UniProt P42858)
Kd [3]: 25 µM
